For data set [1] the following is noted: in solution; cited from earlier work.
Data set [2] deals with irritable bowel syndrome (IBS). To be noted: clinical trials; cited from earlier work.
For data set [3], the system named is constipation predominant IBS (IBS-C). The settings on record: cited from earlier work.
Data set [4] is described as follows: High performance size-exclusion chromatography (HP-SEC): monomer, HMWS, LMWS. The class given is physicochemical. To be noted: method test. The procedure:
The ability of the HP-SEC method to detect changes in the monomer, HMWS and LMWS content was tested with stressed samples. […] Multiple freeze-thaw cycles had no influence on the SEC profile.
On the technique in general: In gel filtration, larger molecules generally elute earlier.

Regarding “H-HVEGTFTSDVSSYLEGQAAKEFIAWLVKGRG-OH [ROSE-010]”, the noncovalent aggregates entry in data set [1] is on record as “forms noncovalent aggregates in solution”. Moreover, the “acute exacerbations of irritable bowel syndrome (IBS)” value in data set [2] is given as “reduce acute exacerbations of irritable bowel syndrome (IBS)”. Moreover, in data set [3] (at 48 h with 30 and 100 μg), the colonic transit result is “accelerated colonic transit”. In data set [3], the “gastric emptying of solids” value is listed as “delayed gastric emptying of solids”. In addition, the “overall signal intensity (HP-SEC)” value in data set [4] (mechanical stress) is given as “substantial loss”. For the same substance, the SEC profile result in data set [4] (multiple freeze-thaw cycles) is on record as “no influence”. In addition, in data set [4] (one week storage at 40° C.), the HMWS content result was “slight increase”.

Values taken from patent publication US11058748B2, “Stable liquid formulations of glucagon-like peptide 1 or analogues thereof” (Rose Pharma LLC, priority 2019, dated 2021).
